Columns and labels:
[1] = biological target: T1, human Cul3 N-terminal domain (NTD, residues M1-L388) with the engineered mutations I342R and L346D (human, UniProt Q13618 1-388, I342R | L346D); test: ITC; KCTD protein titrated into Cul3 in the cell; 15°C; 50 mM HEPES pH 7.5, 150 mM NaCl, 1 mM TCEP, 5% glycerol; single-binding site model; conditions: both partners purified
T1 construct: Cullin-3, human, UniProt Q13618, N-terminal domain residues M1-L388, with the stabilising mutations I342R and L346D; The methods say in general that the eluted His-tagged proteins were cleaved with TEV protease; also called Cullin3; Cul3 NTD; source: E. coli BL21(DE3)R3-pRARE2, purified (nickel-sepharose, TEV cleavage, SEC)

[2] = biological target: T1, human Cul3 N-terminal domain (NTD, …); test: ITC; KCTD5 titrated into Cul3 in the cell; 25°C; 50 mM HEPES pH 7.5, 150 mM NaCl, 1 mM TCEP, 5% glycerol; single-binding site model; conditions: both partners purified
[3] = biological target: the molecule itself; test: crystal structure; BTB domains alone, sitting-drop vapour diffusion at 20 and 4°C, data at 100 K
[4] = biological target: the molecule itself; test: SEC-MALS; BTB domains alone, injected at 50 µM; Shodex KW-803; 50 mM HEPES pH 7.5, 150 mM NaCl, 1 mM TCEP
[5] = biological target: T2, human Cul3 N-terminal domain (NTD, residues M1-L388) with the engineered mutations I342R and L346D (human, UniProt Q13618 1-388, I342R | L346D); test: ITC; KCTD5 titrated into Cul3 NTD; 25°C; 50 mM HEPES pH 7.5, 150 mM NaCl, 1 mM TCEP, 5% glycerol; single-binding site model; conditions: both partners purified
T2 construct: Cullin-3, human, UniProt Q13618, N-terminal domain residues M1-L388, with I342R and L346D introduced to stabilize the isolated Cullin-repeat domain; only the vector pNIC-CTHF is named, the tag is inferred from it; The general methods say that eluted proteins were cleaved with TEV protease; also called Cullin3; Cul3 NTD; source: E. coli BL21(DE3)R3-pRARE2, purified (nickel-sepharose, SEC)

[6] = biological target: the molecule itself; test: SAXS; KCTD-Cul3 complexes co-purified over S200, ~10% more Cul3 added, 10 mg/ml injected onto Shodex KW404 at 20°C; 50 mM HEPES pH 7.5, 150 mM NaCl, 1 mM TCEP, 5% glycerol; curves compared with a 5 : 5 model
[7] = biological target: T2, human Cul3 N-terminal domain (NTD, …); test: as above; conditions: both partners purified
[8] = biological target: T2, human Cul3 N-terminal domain (NTD, …); test: ITC; KCTD protein titrated into Cul3 NTD; 15°C; 50 mM HEPES pH 7.5, 150 mM NaCl, 1 mM TCEP, 5% glycerol; single-binding site model; conditions: both partners purified
[9] = biological target: T2, human Cul3 N-terminal domain (NTD, …); test: SEC; KCTD protein alone and mixed with Cul3 NTD at a molar ratio of 1 : 1; UV 280 nm traces; injected at 50 µM; 50 mM HEPES pH 7.5, 150 mM NaCl, 1 mM TCEP; conditions: both partners purified

B1: SHKBP1 BTB domain (residues G18-S120) (domain or fragment, human, UniProt Q8TBC3 18-120, looked up)
chain: GEVIHLNVGGKRFSTSRQTLTWIPDSFFSSLLSGRISTLKDETGAIFIDRDPTVFAPILNFLRTKELDPRGVHGSSLLHEAQFYGLTPLVRRLQLREELDRSS
notes: TEV cleavage stated in general in the methods; source: E. coli BL21(DE3)R3-pRARE2, purified (nickel-sepharose, TEV cleavage, SEC); not shown: His6, N-terminal, cleaved
Ka [1]: 1.15e+07 M⁻¹ | stoichiometry N [1]: 0.92

B2: KCTD5 BTB domain (residues G40-R145) (domain or fragment)
chain: not shown
notes: Pentamer by SEC-MALS; TEV cleavage stated in general in the methods; source: E. coli BL21(DE3)R3-pRARE2, purified (nickel-sepharose, TEV cleavage, SEC); not shown: His6, N-terminal, cleaved
Ka [2]: 1.8e+07 M⁻¹ | stoichiometry N [2]: 0.81

B3: KCTD5 BTB + CTD multi-domain construct (residues G40-M234) (domain or fragment, human, UniProt Q9NXV2 40-234, looked up)
chain: GSVSKWVRLNVGGTYFLTTRQTLCRDPKSFLYRLCQADPDLDSDKDETGAYLIDRDPTYFGPVLNYLRHGKLVINKDLAEEGVLEEAEFYNITSLIKLVKDKIRERDSKTSQVPVKHVYRVLQCQEEELTQMVSTMSDGWKFEQLVSIGSSYNYGNEDQAEFLCVVSKELHNTPYGTASEPSEKAKILQERGSRM
notes: as for B1
Ka [2]: 7.95e+08 M⁻¹ | stoichiometry N [2]: 0.94

B4: KCTD13 BTB domain (residues G27-L144) (domain or fragment, human, UniProt Q8WZ19 27-144, looked up)
chain: GPAAYGLKPLTPNSKYVKLNVGGSLHYTTLRTLTGQDTMLKAMFSGRVEVLTDAGGWVLIDRSGRHFGTILNYLRDGSVPLPESTRELGELLGEARYYLVQGLIEDCQLALQQKRETL
notes: TEV cleavage stated in general in the methods; also called BACURD1; source: E. coli BL21(DE3)R3-pRARE2, purified (nickel-sepharose, TEV cleavage, SEC); not shown: His6, N-terminal, cleaved
Ka [1]: 1.01e+07 M⁻¹ | stoichiometry N [1]: 0.87

B5: human KCTD10 BTB domain (residues G26-E135) with F61L (domain or fragment, UniProt Q9H3F6 26-135, looked up)
chain: GTSPSSKYVKLNVGGALYYTTMQTLTKQDTMLKAMLSGRMEVLTDSEGWILIDRCGKHFGTILNYLRDGAVPLPESRREIEELLAEAKYYLVQGLVEECQAALQNKDTYE
notes: KCTD10, human, UniProt Q9H3F6, BTB domain residues G26-E135; cleaved with TEV protease by the general methods; source: E. coli BL21(DE3)R3-pRARE2, purified (nickel-sepharose, TEV cleavage, SEC); not shown: His6, N-terminal, cleaved
stoichiometry N [3]: 4

B6: human KCTD5 BTB domain (residues G40-R145) (domain or fragment)
chain: not shown
notes: KCTD5, human, UniProt Q9NXV2, BTB domain residues G40-R145; cleaved with TEV protease by the general methods; source: E. coli BL21(DE3)R3-pRARE2, purified (nickel-sepharose, TEV cleavage, SEC); not shown: His6, N-terminal, cleaved
stoichiometry N [4]: 5 | Kd [5]: 55 nM

B7: human KCTD16 BTB domain (residues G16-E133) (domain or fragment, UniProt Q68DU8 16-133, looked up)
chain: GSAVPNSFPEVVELNVGGQVYFTRHSTLISIPHSLLWKMFSPKRDTANDLAKDSKGRFFIDRDGFLFRYILDYLRDRQVVLPDHFPEKGRLKREAEYFQLPDLVKLLTPDEIKQSPDE
notes: KCTD16, human, UniProt Q68DU8, BTB domain residues G16-E133; cleaved with TEV protease by the general methods; source: E. coli BL21(DE3)R3-pRARE2, purified (nickel-sepharose, TEV cleavage, SEC); not shown: His6, N-terminal, cleaved
stoichiometry N [4]: 5

B8: human KCTD13 BTB domain (residues G27-L144) (domain or fragment, UniProt Q8WZ19 27-144, looked up)
chain: GPAAYGLKPLTPNSKYVKLNVGGSLHYTTLRTLTGQDTMLKAMFSGRVEVLTDAGGWVLIDRSGRHFGTILNYLRDGSVPLPESTRELGELLGEARYYLVQGLIEDCQLALQQKRETL
notes: KCTD13, human, UniProt Q8WZ19, BTB domain residues G27-L144; cleaved with TEV protease by the general methods; also called BACURD1; source: E. coli BL21(DE3)R3-pRARE2, purified (nickel-sepharose, TEV cleavage, SEC); not shown: His6, N-terminal, cleaved
stoichiometry N [6]: 5 | stoichiometry N [7]: 1 KCTD : Cul3 (5 : 5) | Kd [8]: 100 nM | stoichiometry N [3]: 4

B9: human SHKBP1 BTB domain (residues G18-S120) (domain or fragment, UniProt Q8TBC3 18-120, looked up)
chain: GEVIHLNVGGKRFSTSRQTLTWIPDSFFSSLLSGRISTLKDETGAIFIDRDPTVFAPILNFLRTKELDPRGVHGSSLLHEAQFYGLTPLVRRLQLREELDRSS
notes: cleaved with TEV protease by the general methods; source: E. coli BL21(DE3)R3-pRARE2, purified (nickel-sepharose, TEV cleavage, SEC); not shown: His6, N-terminal, cleaved
stoichiometry N [9]: 1 KCTD : Cul3 (5 : 5) | Kd [8]: 87 nM

B10: human KCTD5 BTB + CTD multi-domain construct (residues G40-M234) (domain or fragment, UniProt Q9NXV2 40-234, looked up)
chain: GSVSKWVRLNVGGTYFLTTRQTLCRDPKSFLYRLCQADPDLDSDKDETGAYLIDRDPTYFGPVLNYLRHGKLVINKDLAEEGVLEEAEFYNITSLIKLVKDKIRERDSKTSQVPVKHVYRVLQCQEEELTQMVSTMSDGWKFEQLVSIGSSYNYGNEDQAEFLCVVSKELHNTPYGTASEPSEKAKILQERGSRM
notes: KCTD5, human, UniProt Q9NXV2, BTB + CTD residues G40-M234; cleaved with TEV protease by the general methods; also called multi-domain KCTD5; source: E. coli BL21(DE3)R3-pRARE2, purified (nickel-sepharose, TEV cleavage, SEC); not shown: His6, N-terminal, cleaved
Kd [5]: 1 nM

— paper PMC5664961 (Biochemical Journal, 2017)
